The values that follow are results of earlier work, collected in article PMC10303925.

The target in series [1] is MLPH (Homo sapiens) (UniProt Q9BV36).
Series [2] deals with SLP2-A (Homo sapiens) (UniProt Q9HCH5).
UniProt Q9HCH5, sequence (Q9HCH5 whole entry): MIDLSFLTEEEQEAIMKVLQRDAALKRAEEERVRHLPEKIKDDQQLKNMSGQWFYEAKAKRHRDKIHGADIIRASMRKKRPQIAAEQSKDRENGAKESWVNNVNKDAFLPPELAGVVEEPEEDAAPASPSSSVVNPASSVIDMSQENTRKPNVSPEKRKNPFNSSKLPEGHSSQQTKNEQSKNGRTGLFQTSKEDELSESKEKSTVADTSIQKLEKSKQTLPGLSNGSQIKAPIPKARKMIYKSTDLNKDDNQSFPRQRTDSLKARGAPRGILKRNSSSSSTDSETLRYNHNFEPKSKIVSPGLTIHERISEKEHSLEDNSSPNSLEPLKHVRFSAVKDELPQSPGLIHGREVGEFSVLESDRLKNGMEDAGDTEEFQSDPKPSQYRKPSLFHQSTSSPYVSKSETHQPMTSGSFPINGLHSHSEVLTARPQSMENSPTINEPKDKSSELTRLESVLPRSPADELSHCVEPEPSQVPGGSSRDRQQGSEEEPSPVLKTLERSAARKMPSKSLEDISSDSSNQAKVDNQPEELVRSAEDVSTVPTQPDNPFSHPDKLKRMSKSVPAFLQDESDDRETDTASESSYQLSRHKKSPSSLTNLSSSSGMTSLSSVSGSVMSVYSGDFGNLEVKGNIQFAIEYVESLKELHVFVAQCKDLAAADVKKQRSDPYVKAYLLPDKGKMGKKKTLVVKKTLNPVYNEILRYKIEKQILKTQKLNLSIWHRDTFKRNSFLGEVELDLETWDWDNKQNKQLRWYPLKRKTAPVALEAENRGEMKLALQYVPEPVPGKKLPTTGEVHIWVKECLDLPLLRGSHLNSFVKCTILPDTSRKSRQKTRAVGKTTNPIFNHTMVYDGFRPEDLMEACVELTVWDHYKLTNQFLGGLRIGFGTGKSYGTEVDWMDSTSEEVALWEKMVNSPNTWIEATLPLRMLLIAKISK

UniProt Q9BV36, sequence (Q9BV36 whole entry): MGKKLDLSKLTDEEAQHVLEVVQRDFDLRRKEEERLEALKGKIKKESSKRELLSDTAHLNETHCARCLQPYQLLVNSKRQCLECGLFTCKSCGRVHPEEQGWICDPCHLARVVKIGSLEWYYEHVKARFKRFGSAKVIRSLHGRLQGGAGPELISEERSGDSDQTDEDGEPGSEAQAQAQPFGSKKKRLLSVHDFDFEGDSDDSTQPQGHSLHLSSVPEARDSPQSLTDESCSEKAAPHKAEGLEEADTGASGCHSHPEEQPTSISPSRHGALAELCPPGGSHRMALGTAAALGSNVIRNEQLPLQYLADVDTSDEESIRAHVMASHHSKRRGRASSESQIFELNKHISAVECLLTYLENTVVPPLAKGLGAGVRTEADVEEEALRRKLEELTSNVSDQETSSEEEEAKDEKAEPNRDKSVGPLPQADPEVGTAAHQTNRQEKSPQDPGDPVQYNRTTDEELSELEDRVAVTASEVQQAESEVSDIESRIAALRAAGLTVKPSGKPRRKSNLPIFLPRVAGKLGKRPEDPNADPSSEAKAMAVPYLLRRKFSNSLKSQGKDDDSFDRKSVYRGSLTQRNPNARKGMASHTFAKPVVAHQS

As for RAB27A (from UniProt P51159), the Kd in series [1] is 0.2 µM; in series [2], 0.02 µM.
